This assay addresses T1, 重组人NEFL蛋白 (human, UniProt P07196 400-543).
T1 construct: Expressed in E. coli Rosetta(DE3) from the vector pET-28a-sumo and purified on a Ni column; also called 人轻肽神经细丝蛋白(NEFL); 神经丝轻链
T1 sequence: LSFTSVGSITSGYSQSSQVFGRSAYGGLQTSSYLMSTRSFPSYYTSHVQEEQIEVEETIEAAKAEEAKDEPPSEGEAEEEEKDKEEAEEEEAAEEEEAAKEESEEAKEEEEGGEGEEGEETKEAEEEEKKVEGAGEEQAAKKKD
Kind of assay: BLI (Gator); antibody 2 μg/mL, recombinant human NEFL 150 nM and 75 nM.

Experimental findings from CN116675768A (WUHAN ABCLONAL INC, dated 2023) are described below.

B1: 兔单克隆抗体2G10 (antibody, V domains shown)
VH: QSLEESGGRLVTPGTRLTLTCTVSGFSLGRYAMGWVRQAPGKGLEWIGIINSYGTTYYASWAKGRFTISKTSTTVDLKITSPTTEDTATYFCARDGYEDYGDYYNAFDPWGPGTLVTVSS
VL: DVVMTQTPASVSEPVGGTVTIKCQASQSIGVTLAWYQQKPGQPPKLLIYKASNLASGVSSRFKGSRSGTEYTLTISDLECADAATYYCQCTWYGPSFVGAFGGGTEVVVKG
notes: also called 抗人NEFL蛋白的兔单克隆抗体2G10; 2G10-biotin
With B1, the Kd came out at 3.2 nM, the koff came to 0.00043 s⁻¹ and the kon is 134000 M⁻¹ s⁻¹.

B2: 兔单克隆抗体1H8 (antibody, V domains shown)
VH: QSLEESGGRLVTPGTPLTLTCAVSGIDLSRYGIDWVRQAPGKGLEWIGTVSAGGDSWYASWAKGRFTISKTSSTTVDLEVTSPTTEDTATYFCAKGATLNLWGQGTLVTVSS
VL: DPVLTQTPSSTSAAVGGTVTINCQSSQNVYGNNWLAWYQKKPGQSPKLLIISASSLPSGVPSRFKGSGSGTQFTLTISDLECDDAATYYCAGGYSGYIYTFGGGTEVVVKG
notes: also called 抗人NEFL蛋白的兔单克隆抗体1H8; 捕获抗体
For the molecule B2, the Kd came to 2.03 nM, the koff was 0.000504 s⁻¹ and the kon stood at 248000 M⁻¹ s⁻¹.
